In doi:10.1101/2024.03.04.583282 (bioRxiv, 2024):

B1: full-length NATA2 (enzyme, Arabidopsis thaliana, UniProt Q9ZV06 1-236, looked up)
chain: MAAAAPPPPPTAAPEPNMVAPLISPIGHPMFSRIRLATPSDVPFIHKLIHQMAVFERLTHLFSATESGLASTLFTSRPFQSFTVFLLEVSRSPFPATITSSPSPDFTPFFKTHNLDLPIDDPESYNFSPDMLNDVVVAGFVLFFPNYSSFLSKPGFYIEDIFVREPYRRKGFGSMLLTAVAKQAVKMGYGRVEWVVLDWNVNAIKFYEQMGAQILQEWRVCRLTGDALEAFDQVNI
B2: N-terminally truncated NATA1 (19-228, NATA1Δ) (enzyme, Arabidopsis thaliana, UniProt Q9ZV05 19-228, looked up)
chain: TGHRMFSRIRLATPTDVPFIHKLIHQMAVFERLTHLFVATESGLASTLFNSRPFQAVTVFLLEISPSPFPTTHDASSPDFTPFLETHKVDLPIEDPDREKFLPDKLNDVVVAGFVLFFPNYPSFLAKQGFYIEDIFMREPYRRKGFGKLLLTAVAKQAVKLGVGRVEWIVIDWNVNAINFYEQMGAQVFKEWRLCRLTGDALQAIDKLNI
B3: N-terminally truncated NATA2 (30-236, NATA2Δ) (enzyme, Arabidopsis thaliana, UniProt Q9ZV06 30-236, looked up)
chain: MFSRIRLATPSDVPFIHKLIHQMAVFERLTHLFSATESGLASTLFTSRPFQSFTVFLLEVSRSPFPATITSSPSPDFTPFFKTHNLDLPIDDPESYNFSPDMLNDVVVAGFVLFFPNYSSFLSKPGFYIEDIFVREPYRRKGFGSMLLTAVAKQAVKMGYGRVEWVVLDWNVNAIKFYEQMGAQILQEWRVCRLTGDALEAFDQVNI

Target: the molecule itself
Experiment: crystal structure

Stoichiometry N, 2:
B1
B2
B3
